According to patent publication US20210315238A1:
Where two headings read alike, the source gives them in different places.

What was measured:
[1] = system: 26-mer peptide
[2] = system: 33-mer peptide
[3] = molecular target: wheat gliadin (Sigma, Cat. No. G3375) (wheat); experiment: cell-based or functional assay
[4] = molecular target: T1, 26-mer peptide
T1 chain: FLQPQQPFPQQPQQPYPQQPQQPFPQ

[5] = molecular target: T2, 33-mer peptide
T2 chain: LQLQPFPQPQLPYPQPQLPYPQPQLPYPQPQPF

## Brewers Clarex
[1]
  Residual 26-mer peptide (mg/mL) after 0.5 ppm protease, 10 min 40 C, HPLC: 0.65 mg/mL
  Residual 26-mer peptide (mg/mL) after 1 ppm protease, 10 min 40 C, HPLC: 0.46 mg/mL
  Residual 26-mer peptide (mg/mL) after 2 ppm protease, 10 min 40 C, HPLC: 0.2 mg/mL
  Residual immunogenicity of 26-mer peptide (%), competitive ELISA after protease treatment: 99.6%
[2]
  Residual 33-mer peptide (mg/mL) after 0.5 ppm protease, 10 min 40 C, HPLC: 0.58 mg/mL
  Residual 33-mer peptide (mg/mL) after 1 ppm protease, 10 min 40 C, HPLC: 0.39 mg/mL
  Residual 33-mer peptide (mg/mL) after 2 ppm protease, 10 min 40 C, HPLC: 0.18 mg/mL
  Residual immunogenicity of 33-mer peptide (%), competitive ELISA after protease treatment: 73.7%

## Brewers Clarex (enzyme)
[3]
  Residual Immunogenicity (%) of wheat gliadin, competitive ELISA after protease treatment: 59.7%

B1: AflPro3 (protein)
chain: LSFLPGIKANNLQLASVLGIDGHTARFNPEKIAETAISRGSGSEVPARRISIPIDHEDPSMGTYQNRYWVSADFYKPGGPVFVLDAGEGNAYSVAQSYLGGSDNFFAEYLKEFNGLGLVWEHRYYGDSLPFPVNTSTPNEHFKYLTNSQALADLPYFAEKFTLNGTDLSPKSSPWIMLGGSYPGMRAAFTRNEYPDTIFASFAMSAPVEAWVNMTIYFEQVYRGMVANGLGGCAKDLKAINDYIDSQLDKKGQAADAIKTLFLGKEGIHNSNGDFTAALGSIYNLFQSYGVDGGEESLSQLCSYLDKEASPNGIARKIGVKELTEKFAAWPPLLYLINQWGSQVGNGDSNCKGQNNSTETVCELGGQFTDPDTISWTWQYCTEWGYLQADNVGPHSLLSKYQSLEYQQSLCYRQFPGAKESGLLPEHPEANETNAETGGWTIRPSNVFWSAGEFDPWRTLTPLSNETFAPKGVQISTNIPKCGVETPENVLFGYVIPRAEHCFDYDLSYKPADKSRKLFSLALKKWLPCWRSEHAPKGVQRKWM
[4]
  Residual 26-mer peptide (mg/mL) after 0.5 ppm protease, 10 min 40 C, HPLC: 0.38 mg/mL
  Residual 26-mer peptide (mg/mL) after 1 ppm protease, 10 min 40 C, HPLC: 0.17 mg/mL
  Residual 26-mer peptide (mg/mL) after 2 ppm protease, 10 min 40 C, HPLC: 0.05 mg/mL
[5]
  Residual 33-mer peptide (mg/mL) after 0.5 ppm protease, 10 min 40 C, HPLC: 0.09 mg/mL
  Residual 33-mer peptide (mg/mL) after 1 ppm protease, 10 min 40 C, HPLC: 0.01 mg/mL
  Residual 33-mer peptide (mg/mL) after 2 ppm protease, 10 min 40 C, HPLC: 0.01 mg/mL
